Experimental data from the supplement of paper PMC9170038.

Test system: K4 kissing-loop RNA reporter
Assay: apparent KD of K4 kissing-loop reporter; higher = weaker reporter binding
Settings: Eterna round: R107
Protocol: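 RNA-MaP round R107: designed RNA switches with theophylline, tryptophan, arginine or FMN aptamers are transcribed on-chip within common flanks. They are titrated with a labelled K4 kissing-loop RNA reporter in RNA-MaP buffer (100 mM Tris pH 7.5, 80 mM KCl, 4 mM MgCl2), without ligand or with the indicated ligand. Median apparent KD per design.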

[1] = input ligand: theophylline 20 uM
[2] = input ligand: tryptophan 2.4 mM
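Also: bound reporter read as fluorescence of individual clusters on recovered sequencing chips by microscopy, with normalized cluster intensities fitted with a binding model.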

| Sequence | apparent KD of K4 kissing-loop reporter (input ligand: FMN 200 uM) | apparent KD of K4 kissing-loop reporter (input ligand: arginine 13.2 mM) | apparent KD of K4 kissing-loop reporter (input ligand: none) | apparent KD of K4 kissing-loop reporter [1] | apparent KD of K4 kissing-loop reporter [2] |
| --- | --- | --- | --- | --- | --- |
| AAACAUUGGUCUGAUACCAGCUUGAUCGGUAAACGAUCUACUGGAGUGAUGUUCCUAAAUAGCCCUUGGCAGCAGACCGAUGAAA [MAT - Same State Theophlline B - Mod of Eli - D6] | 187 nM | 172 nM | 177 nM | 132 nM | 181 nM |
| UUAUGUUUAGUUCACCCAGUGAUGUUGGAAGGAGCGUGCGAAAGCACAGGUAGGUCGCCAACCUUAAAGUGUCUUGAUUAUCUAA [JR_Nu_ExcArginiA_Sub029] | 400 nM | 499 nM | 411 nM | 386 nM | 364 nM |
| UGACUGGACUGAAGGAGCGAGGACGGUCAUAGACCGAAAUCAGUGAUGUUGAAAGAUAAACCUCAGGUAGGUCGCAGUCUAGUCU [ArgBS 1 #SwitchBubble #StaticStem] | 1070 nM | 918 nM | 790 nM | 546 nM | 1230 nM |
| UUGUUUGGUUGAGAGGUUGGGCGAGAUGAUACCAGUAUAGUAUUGUACCCUUGGCAGCAUAGGAGAGAUAUAGUGAUGUUGUAUG [SSTheophA.W] | 419 nM | 320 nM | 457 nM | 416 nM | 328 nM |
| UGCACGUAGUGAUGUUACAGCAAGUUUAUGAAGGAUAUGAGGUUAGUCAGAAGGUCAGCCGUCUCGUUGUAAGCACCUUAUCAUU [theeternabot_exclusion_KL_FMN_A_14] | 305 nM | 144 nM | 232 nM | 158 nM | 155 nM |
| CAUACUAUCAGAAGGAGCGUGGAAUAUUCAUCUGUAUCUAAUACGAGUGAUGUUCGUAAUUCACAGGUAGGUCGCUGAUUAAUAC [whbob_Ex_Arginine_B_2th159] | 265 nM | 272 nM | 267 nM | 269 nM | 219 nM |
| ACAUCGGUUGAGAGUGAUGUUCCUUGUGUUCGAGGACCGGUACGGCCGCCACUCGGGUAGAAAAUAACAGAUGUGUUUCCUUUUU [BDazzled - #18 SS Tryptophan A] | 164 nM | 80.5 nM | 171 nM | 181 nM | 209 nM |
| UCUCUUCUCAGUGAUGUUGAGUAAUCGGAAGGAGCGCGUGAAAACGCAGGUAGGUCGCCGAUUUGUGAAGUAUCUUCGCAAGAGA [Arginine A K4 26] | 352 nM | 341 nM | 412 nM | 441 nM | 300 nM |
| GGAUUCACCAGUGAUGUUGGAGAAAACUCGAAGGAUAUGACGAAAGUCAGAAGGUCGUAGACUGGACAAAGUCCGGUCGGAUCCA [KL-SSFMN-A22] | 419 nM | 250 nM | 299 nM | 359 nM | 279 nM |
| AGUGGACGUGUCCGGAGUGAUGUUCCGGAUACCAGACACGAAAGUGUCCCUUGGCAGCCGGAGUAAAGUUCCGGCGUUCACUAAA [#26 K4 Theophylline A Exclusion] | 109 nM | 77.8 nM | 111 nM | 67.2 nM | 105 nM |
| AGAGUUAAUUAGUCUUUUUUAACAUUAAGUCAGGAUAUCGUAUAUUCGAGAAGGGACACAUGCUAGUGAUGUUAGCUAUUUCUCA [JR_ExcFMNA_Sub018] | 50.2 nM | 90.5 nM | 56.5 nM | 86.7 nM | 47.2 nM |
| ACUCUUGCGUAUGAUACCAGCUUGUACCGCCACAUAUAUUCUAAGAGUUGAGUGAUGUUUAGCCCUUGGCAGCAUACUUGUGCGU [theeternabot_exclusion_KL_Theo_B_42] | 706 nM | 546 nM | 778 nM | 606 nM | 702 nM |
| CGGCCCGGCGCGGCCGCCACUGUGCCUGGGCGCUUGCCGAGUGAUGUUCGUCGGCGGUCGGGUGGCAGGACCGGGCGCCGGUCCG [BDazzled - #26 SS Tryptophan B] | 137 nM | 129 nM | 131 nM | 123 nM | 134 nM |
| GGUACAGCGGAAGGAUAUCUGUCAUGGACGAUCGUAGCUUGAGCUCCCUGAGUGAUGUUUAGGAUGAGAGAAGGUCCACUCGUAU [theeternabot_exclusion_KL_FMN_B_2] | 673 nM | 358 nM | 591 nM | 626 nM | 450 nM |
| GGCGAUGAGUGAUGUUCAAAGAAUAAUGAUACCAGCUGAUGUCGAAGCCCUUGGCAGCAUAGAUACACCAAGUGAUGGUAAUGCC [Default title] | 193 nM | 209 nM | 237 nM | 235 nM | 143 nM |
| UGAUACCAGACGGCCGCCACUCCUGCAGUCAAAGACUGCUAAGGAAUAUUCGUCCAGUGAUGUUGGAGGACCGGGUCUGGUAUCU [TrypBX 12 #SwitchBubble #Palindromic #StaticStem] | 1370 nM | 991 nM | 1380 nM | 896 nM | 979 nM |
| UAAUAUACGAGUGAUGUUCGUUAUUUAUCAGAGGAUAUGCUUAAAUGCAGAAGGCUGUUUUUCUAAUUGAUAUUAAAUUUUUUUA [JR_Nu_ExcFMNA_Sub028] | 77.2 nM | 90.1 nM | 74 nM | 89.7 nM | 63.3 nM |
